Laboratory results reported in paper PMC10586780 (Biochemical Journal, 2023).
Where “and” joins values, the source holds several entries; their conditions need not be identical. Equal values may be shown once.

Biological target: the molecule itself
Experiment: native gel or EMSA

Protein | stoichiometry N
human platelet phosphofructokinase-1 with the cancer-associated mutation D564N (PFKP-D564N), recombinant (enzyme, UniProt Q01813-1 1-784, looked up) MDADDSRAPKGSLRKFLEHLSGAGKAIGVLTSGGDAQGMNAAVRAVVRMGIYVGAKVYFIYEGYQGMVDGGSNIAEADWESVSSILQVGGTIIGSARCQAFRTREGRLKAACNLLQRGITNLCVIGGDGSLTGANLFRKEWSGLLEELARNGQIDKEAVQKYAYLNVVGMVGSIDNDFCGTDMTIGTDSALHRIIEVVDAIMTTAQSHQRTFVLEVMGRHCGYLALVSALACGADWVFLPESPPEEGWEEQMCVKLSENRARKKRLNIIIVAEGAIDTQNKPITSEKIKELVVTQLGYDTRVTILGHVQRGGTPSAFDRILASRMGVEAVIALLEATPDTPACVVSLNGNHAVRLPLMECVQMTQDVQKAMDERRFQDAVRLRGRSFAGNLNTYKRLAIKLPDDQIPKTNCNVAVINVGAPAAGMNAAVRSAVRVGIADGHRMLAIYDGFDGFAKGQIKEIGWTDVGGWTGQGGSILGTKRVLPGKYLEEIATQMRTHSINALLIIGGFEAYLGLLELSAAREKHEEFCVPMVMVPATVSNNVPGSDFSIGADTALNTITDTCNRIKQSASGTKRRVFIIETMGGYCGYLANMGGLAAGADAAYIFEEPFDIRDLQSNVEHLTEKMKTTIQRGLVLRNESCSENYTTDFIYQLYSEEGKGVFDCRKNVLGHMQQGGAPSPFDRNFGTKISARAMEWITAKLKEARGRGKKFTTDDSICVLGISKRNVIFQPVAELKKQTDFEHRIPKEQWWLKLRPLMKILAKYKASYDVSDSGQLEHVQPWSV | 4
human liver phosphofructokinase-1 (PFKL), wild type, recombinant (enzyme) MAAVDLEKLRASGAGKAIGVLTSGGDAQGMNAAVRAVTRMGIYVGAKVFLIYEGYEGLVEGGENIKQANWLSVSNIIQLGGTIIGSARCKAFTTREGRRAAAYNLVQHGITNLCVIGGDGSLTGANIFRSEWGSLLEELVAEGKISETTARTYSHLNIAGLVGSIDNDFCGTDMTIGTDSALHRIMEVIDAITTTAQSHQRTFVLEVMGRHCGYLALVSALASGADWLFIPEAPPEDGWENFMCERLGETRSRGSRLNIIIIAEGAIDRNGKPISSSYVKDLVVQRLGFDTRVTVLGHVQRGGTPSAFDRILSSKMGMEAVMALLEATPDTPACVVTLSGNQSVRLPLMECVQMTKEVQKAMDDKRFDEATQLRGGSFENNWNIYKLLAHQKPPKEKSNFSLAILNVGAPAAGMNAAVRSAVRTGISHGHTVYVVHDGFEGLAKGQVQEVGWHDVAGWLGRGGSMLGTKRTLPKGQLESIVENIRIYGIHALLVVGGFEAYEGVLQLVEARGRYEELCIVMCVIPATISNNVPGTDFSLGSDTAVNAAMESCDRIKQSASGTKRRVFIVETMGGYCGYLATVTGIAVGADAAYVFEDPFNIHDLKVNVEHMTEKMKTDIQRGLVLRNEKCHDYYTTEFLYNLYSSEGKGVFDCRTNVLGHLQQGGAPTPFDRNYGTKLGVKAMLWLSEKLREVYRKGRVFANAPDSACVIGLKKKAVAFSPVTELKKDTDFEHRMPREQWWLSLRLMLKMLAQYRISMAAYVSGELEHVTRRTLSMDKGF | 4 and > 4
human liver phosphofructokinase-1 with the cancer-associated mutation D553N (PFKL-D553N), recombinant (enzyme) MAAVDLEKLRASGAGKAIGVLTSGGDAQGMNAAVRAVTRMGIYVGAKVFLIYEGYEGLVEGGENIKQANWLSVSNIIQLGGTIIGSARCKAFTTREGRRAAAYNLVQHGITNLCVIGGDGSLTGANIFRSEWGSLLEELVAEGKISETTARTYSHLNIAGLVGSIDNDFCGTDMTIGTDSALHRIMEVIDAITTTAQSHQRTFVLEVMGRHCGYLALVSALASGADWLFIPEAPPEDGWENFMCERLGETRSRGSRLNIIIIAEGAIDRNGKPISSSYVKDLVVQRLGFDTRVTVLGHVQRGGTPSAFDRILSSKMGMEAVMALLEATPDTPACVVTLSGNQSVRLPLMECVQMTKEVQKAMDDKRFDEATQLRGGSFENNWNIYKLLAHQKPPKEKSNFSLAILNVGAPAAGMNAAVRSAVRTGISHGHTVYVVHDGFEGLAKGQVQEVGWHDVAGWLGRGGSMLGTKRTLPKGQLESIVENIRIYGIHALLVVGGFEAYEGVLQLVEARGRYEELCIVMCVIPATISNNVPGTDFSLGSDTAVNAAMESCNRIKQSASGTKRRVFIVETMGGYCGYLATVTGIAVGADAAYVFEDPFNIHDLKVNVEHMTEKMKTDIQRGLVLRNEKCHDYYTTEFLYNLYSSEGKGVFDCRTNVLGHLQQGGAPTPFDRNYGTKLGVKAMLWLSEKLREVYRKGRVFANAPDSACVIGLKKKAVAFSPVTELKKDTDFEHRMPREQWWLSLRLMLKMLAQYRISMAAYVSGELEHVTRRTLSMDKGF | 4
